Data published in PMC4511216 (Genes & Development, 2015).
Read-outs that look alike come from different tables or passages of the source. Each block holds one molecule with its values, some of them ahead of it. Square brackets hold non-standard residues; d marks the D form. Ends that are not written are not given here. pT = C[C@@H](OP(=O)(O)O)[C@H](N)C(=O)O

B2: human Mob1, full length, unphosphorylated, untagged (natural protein)
chain: MSFLFSSRSSKTFKPKKNIPEGSHQYELLKHAEATLGSGNLRQAVMLPEGEDLNEWIAVNTVDFFNQINMLYGTITEFCTEASCPVMSAGPRYEYHWADGTNIKKPIKCSAPKYIDYLMTWVQDQLDDETLFPSKIGVPFPKNFMSVAKTILKRLFRVYAHIYHQHFDSVMQLQEEAHLNTSFKHFIFFVQEFNLIDRRELAPLQELIEKLGSKDR

How the values were obtained:
[1] = target: PPXY-containing peptide of Lats1
[2] = target: T1, human pMob1, full length, untagged (phosphorylated by Mst2) (human, UniProt Q9H8S9 1-216, phosphothreonine at 12 and 35); experiment: crystal structure
T1 sequence: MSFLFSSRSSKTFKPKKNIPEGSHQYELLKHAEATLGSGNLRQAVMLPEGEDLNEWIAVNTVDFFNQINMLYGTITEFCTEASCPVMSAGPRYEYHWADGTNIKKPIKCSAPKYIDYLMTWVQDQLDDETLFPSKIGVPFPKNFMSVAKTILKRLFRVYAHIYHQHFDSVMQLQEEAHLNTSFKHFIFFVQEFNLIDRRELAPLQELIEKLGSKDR

[3] = target: T2, human Mst2 wild type, autophosphorylated (pMst2) (human, UniProt Q13188 9-491); experiment: NMR titration
T2 sequence: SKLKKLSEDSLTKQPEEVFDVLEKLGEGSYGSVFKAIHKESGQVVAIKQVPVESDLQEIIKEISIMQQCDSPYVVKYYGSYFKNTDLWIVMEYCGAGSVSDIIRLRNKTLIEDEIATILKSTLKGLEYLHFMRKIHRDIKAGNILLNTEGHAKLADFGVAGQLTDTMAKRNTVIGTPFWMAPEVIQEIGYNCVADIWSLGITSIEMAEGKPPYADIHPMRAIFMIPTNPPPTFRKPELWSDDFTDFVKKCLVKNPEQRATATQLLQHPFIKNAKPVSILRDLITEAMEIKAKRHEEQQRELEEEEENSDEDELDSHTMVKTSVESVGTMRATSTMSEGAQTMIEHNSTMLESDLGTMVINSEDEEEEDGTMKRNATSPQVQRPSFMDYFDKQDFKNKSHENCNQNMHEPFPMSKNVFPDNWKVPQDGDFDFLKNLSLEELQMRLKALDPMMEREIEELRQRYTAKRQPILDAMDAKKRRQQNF

[4] = target: T3, human Lats1C ΔHM (residue 602–1060) (human, UniProt O95835 602-1060); experiment: SEC
T3 sequence: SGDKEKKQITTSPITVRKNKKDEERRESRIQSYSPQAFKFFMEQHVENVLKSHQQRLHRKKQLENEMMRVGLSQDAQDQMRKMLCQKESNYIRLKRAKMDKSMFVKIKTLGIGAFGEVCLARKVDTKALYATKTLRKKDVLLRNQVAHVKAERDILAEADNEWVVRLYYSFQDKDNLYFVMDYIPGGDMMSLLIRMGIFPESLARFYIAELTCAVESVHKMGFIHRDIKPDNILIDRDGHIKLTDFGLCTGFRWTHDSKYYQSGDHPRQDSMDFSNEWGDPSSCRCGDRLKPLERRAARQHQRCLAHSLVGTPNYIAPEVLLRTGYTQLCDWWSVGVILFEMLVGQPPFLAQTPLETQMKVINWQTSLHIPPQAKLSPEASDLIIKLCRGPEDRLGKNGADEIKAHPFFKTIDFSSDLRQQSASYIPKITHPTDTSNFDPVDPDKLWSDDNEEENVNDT

[5] = target: B2; experiment: pull-down
[6] = target: B2; experiment: ITC
[7] = target: human Mob1 F167A (human, UniProt Q9H8S9 1-216, F167A); experiment: pull-down
[8] = target: human Mob1 L207K (human, UniProt Q9H8S9 1-216, L207K); experiment: pull-down
[9] = target: human Mob1 H164A (human, UniProt Q9H8S9 1-216, H164A); experiment: pull-down
[10] = target: B2; experiment: ITC; remark: listed apart in the source

B1: human Lats1 602–704 (Lats1 MBD) (domain or fragment)
chain: SGDKEKKQITTSPITVRKNKKDEERRESRIQSYSPQAFKFFMEQHVENVLKSHQQRLHRKKQLENEMMRVGLSQDAQDQMRKMLCQKESNYIRLKRAKMDKSM
binding result [2]: binds

Molecule: B2
binding result [3]: binds
binding result [4]: binds

Molecule: DGTMKRNATSPQVQRPSFMDYFDKQ (domain or fragment, human, UniProt Q13188 376-400, looked up, not fully specified (N-terminus); also: phosphorylated, sites not given here) [GST-Mst2 linker fragment 376–400, phosphorylated with Mst2 kinase domain]
binding result [5]: binds

Molecule: DEEEEDG[pT]MKRNATSPQVQRPSFMDYFDKQD (domain or fragment, human, UniProt Q13188 371-401, looked up, not fully specified (N-terminus)) [GST-pMst2 MBM (residues 371–401), phosphorylated]
binding result [5]: binds

B4: GST-Mst2 371–427, phosphorylated with Mst2 kinase domain (domain or fragment, human, UniProt Q13188 371-427, looked up)
chain: DEEEEDG[pT]MKRNATSPQVQRPSFMDYFDKQDFKNKSHENCNQNMHEPFPMSKNVFPD
modifications: also: GST fusion
binding result [7]: binds
binding result [8]: binds
binding result [9]: binds

Other lines, results leading:

Kd [1]: 156000 nM
Molecule: human Sav WW domains (domain or fragment)

Kd [6]: 230 nM
B3: human Mst2 ΔL/MBM (contains only the MBM but lacks all other linker residues) (enzyme)
chain: SKLKKLSEDSLTKQPEEVFDVLEKLGEGSYGSVFKAIHKESGQVVAIKQVPVESDLQEIIKEISIMQQCDSPYVVKYYGSYFKNTDLWIVMEYCGAGSVSDIIRLRNKTLIEDEIATILKSTLKGLEYLHFMRKIHRDIKAGNILLNTEGHAKLADFGVAGQLTDTMAKRNTVIGTPFWMAPEVIQEIGYNCVADIWSLGITSIEMAEGKPPYADIHPMRAIFMIPTNPPPTFRKPELWSDDFTDFVKKCLVKNPEQRATATQLLQHPFIKNAKPVSILRDLITEAMEIKAKRHEEQQRELEEEEDEEEEDGTMKRNATSPQVQRPSFMDYFDKQNWKVPQDGDFDFLKNLSLEELQMRLKALDPMMEREIEELRQRYTAKRQPILDAMDAKKRRQQNF

Kd [10]: 119 nM
Molecule: DEEEEDG[pT]MKRNATSPQVQRPSFMDYFDKQ [synthetic phospho-T378 Mst2 MBM peptide]
